Consider 141 substances from the supplement of paper PMC12042874.

± gives the uncertainty stated by the source.

The nature of the data set: amyloid nucleation score (Sup35N fusion, yeast selection) (log enrichment); library NNK1; higher = more nucleation; inactive = no reads after selection. The method, boiled down: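 Random libraries were run with three technical output replicates. In each, psi-negative yeast expressing Sup35N fused to peptides of 20 random codons were induced 24 hours with 100 μM copper sulfate and grown 7 days at 30°C on medium lacking adenine and uracil, and input and output plasmid inserts were Illumina-sequenced. The nucleation score is the DiMSum log enrichment of output over input reads, centred on the mode score of non-aggregating sequences, and sequences under 100 input reads were excluded.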
IWILYLAFIVHKNVLLPRVL showed an amyloid nucleation score of 0.123 ± 0.49.

ISALGF gave an amyloid nucleation score of 1.98 ± 0.72.

With LCSNC, the amyloid nucleation score result was “inactive”.

On to IRSLKNPF, for which the amyloid nucleation score amounted to 0.275 ± 1.2.

As to VLLCNFRSRVWRYRCFKAFS, the amyloid nucleation score came out at 0.93 ± 0.19.

With YILDGESAYFVLLYEKVYFS, the amyloid nucleation score is -0.403 ± 0.53.

As for NSGESLS, the amyloid nucleation score is -0.186 ± 0.85.

In turn, SLLNTELQIKAQYDQMSHRR showed an amyloid nucleation score of 0.36 ± 0.44.

LRTKSLWSF gave an amyloid nucleation score of -0.515 ± 0.59.

On to WFPCVADINICPLGLYHSEG, for which the amyloid nucleation score turned out to be 8.033 ± 0.062.

GKYILYDQCSNTINSGKLSI: the amyloid nucleation score entry is “inactive”.

Consider WRLLCSITMDWF, for which the amyloid nucleation score is -0.15 ± 0.22.

Take FVYLVHLLMNGRVIKLFRDM: the amyloid nucleation score is -0.372 ± 0.27.

SIFRTKTTFLRNVQLEWLGG registered an amyloid nucleation score of -0.211 ± 0.86.

IILIDMVCPPCRPRFRSYSC yielded an amyloid nucleation score of -0.153 ± 0.69.

With KRSSFYHWQWHGKSL, the amyloid nucleation score is -0.718 ± 0.51.

With PPSLQ, the amyloid nucleation score is -0.263 ± 1.4.

As to QRFLHVESYESCLVSVSNLS, the amyloid nucleation score is -0.752 ± 1.9.

Regarding DGRRFFYQRGDICLSMLHNH, the amyloid nucleation score was -1.58 ± 1.7.

For the substance YVMAESSASNDQAVGNWRGR, the amyloid nucleation score is -0.643 ± 0.97.

Take FKFMSLGMSWAT: the amyloid nucleation score is 1.61 ± 0.33.

As for IAMSIKWRRW, the amyloid nucleation score was determined as 2.8 ± 0.093.

As for NRALGMRGVIGPSVWYVVP, the amyloid nucleation score is 0.534 ± 0.26.

For KCFRYCKKNSNWLDCRLQIW, the amyloid nucleation score was -1.26 ± 2.1.

For the substance QIIKENFRRSY, the amyloid nucleation score was determined as 2.45 ± 0.55.

KYLACILCSKLLTQSNSRNI displayed an amyloid nucleation score of 7.687 ± 0.058.

As for NTCLH, the amyloid nucleation score worked out at 1.63 ± 0.43.

Consider SSPIGSSSFTMGCGWREQ, for which the amyloid nucleation score turned out to be 0.599 ± 0.88.

In turn, TLFLVWILGVTKSRITGTPS displayed an amyloid nucleation score of 0.325 ± 0.73.

VLCVFCGNLHMIVLDCAFDA: the amyloid nucleation score is 8.589 ± 0.051.

For the substance WFYICVVSFDLGIKRRYRHR, the amyloid nucleation score entry was “inactive”.

In turn, PMVIYNFEFNFGVSSDRIYA returned an amyloid nucleation score of 4.35 ± 0.15.

With ITCYGKCYPSRDKL, the amyloid nucleation score was 1.27 ± 0.56.

As to RLHSKRAHTRS, the amyloid nucleation score result is “inactive”.

VLANDVVPNSIYKKVSITYC showed an amyloid nucleation score of 0.884 ± 0.7.

As for GFKGQRNNAIQVMGKKNRLQ, the amyloid nucleation score is -0.238 ± 0.59.

For the substance LFGGFMFLGKWDQLHGHNEC, the amyloid nucleation score turned out to be 0.799 ± 0.49.

The substance CAHIY returned an amyloid nucleation score of -0.747 ± 0.99.

IMVCN gave an amyloid nucleation score of -0.197 ± 0.42.

Regarding IHSQHKHVIMRA, the amyloid nucleation score was -0.061 ± 0.57.

In turn, DDVGSTRYTTMGEACQGRPA displayed an amyloid nucleation score of -1.13 ± 0.8.

The substance SQMAVYRPHLLVSSFMFTRS had an amyloid nucleation score of 0.274 ± 0.57.

The substance VRFWTLEFSPVRFSS gave an amyloid nucleation score of -1.11 ± 0.86.

RSLFPFSSLDMGHRRVGGKV: the amyloid nucleation score stood at 0.384 ± 0.52.

Regarding MTWMPFGPHTAGMMGHLYFG, the amyloid nucleation score is -0.398 ± 0.64.

Regarding DIRDYGLWWDKWAEGC, the amyloid nucleation score is 0.459 ± 0.3.

The substance CMWSRRWGTLLASILVLSYG yielded an amyloid nucleation score of 0.081 ± 0.34.

Take MYPTLRTRPTCIYVR: the amyloid nucleation score was 1.19 ± 0.53.

YHGGYGSSHMWRFVRCIKAY returned an amyloid nucleation score of 0.168 ± 0.27.

In turn, GVCVEFCLRGSRFWLMKNKA displayed an amyloid nucleation score of 0.383 ± 0.84.

Turning to IASECWET, the amyloid nucleation score was -0.391 ± 0.52.

WQVNVLIIMCGSFLLVFDFQ came in with an amyloid nucleation score of 0.359 ± 0.45.

Substance NRNKVR registered an amyloid nucleation score of -0.2 ± 1.1.

Regarding FNDRPVWVFCLRWWDSSVNS, the amyloid nucleation score is -0.857 ± 0.84.

LCYAGVVLQYVILDHKRSCD had an amyloid nucleation score of 6.233 ± 0.059.

Substance TVVYDWFG had an amyloid nucleation score of -0.078 ± 0.75.

With TCPWWTVIVFTSESMP, the amyloid nucleation score entry is “inactive”.

Regarding STKADTSRALVLCRGDC, the amyloid nucleation score was -0.18 ± 0.59.

PVRSL came in with an amyloid nucleation score of -0.515 ± 0.48.

MENAGTSVIPRRYIWTPKPV gave an amyloid nucleation score of 0.923 ± 0.76.

On to AGVCYWTLDILPY, for which the amyloid nucleation score stood at 0.789 ± 0.9.

Consider FCPDICTWKNWSMWMQLEDL, for which the amyloid nucleation score is 0.89 ± 0.54.

In the case of VNLRKEPDNRGLGLDFRLN, the amyloid nucleation score worked out at 0.001 ± 0.78.

Consider MVSNNNLYPF, for which the amyloid nucleation score result was “inactive”.

Consider MVFLGCSGLVCERCAGWLAR, for which the amyloid nucleation score was found to be 5.58 ± 0.11.

On to QMVYRYDER, for which the amyloid nucleation score is -1.43 ± 1.6.

Consider RGSRTY, for which the amyloid nucleation score was determined as 0.17 ± 0.53.

The substance YCTLFGSWPLIVVVGG registered an amyloid nucleation score of -0.772 ± 0.77.

Take REITCR: the amyloid nucleation score was -0.24 ± 0.26.

FSFDLLSVESGITNV returned an amyloid nucleation score of -0.054 ± 0.82.

As for GVMACDMCCPNKRVSEPRAS, the amyloid nucleation score was -0.278 ± 0.41.

On to CLIRIVKF, for which the amyloid nucleation score was 1.08 ± 0.7.

Regarding FTAWP, the amyloid nucleation score is -0.242 ± 0.3.

SGVWNEFEGCWMVDDVIDPL showed an amyloid nucleation score of 0.268 ± 0.44.

YAKVSAIERRCWVMSVTYPD yielded an amyloid nucleation score of 0.171 ± 0.28.

FLRPTGHSGCQFGAMSSKKG: the amyloid nucleation score came to 0.464 ± 1.2.

SMFNQRWWVSPVVYGLIVWP: the amyloid nucleation score came to 1.33 ± 0.79.

Consider PMSGVGYGRMRLSAAWPVDK, for which the amyloid nucleation score is -0.604 ± 0.78.

Substance YRLILVANVQMDHWES displayed an amyloid nucleation score of -0.38 ± 0.44.

KLGGFVFGANVCCEDLSYEF: the amyloid nucleation score worked out at 0.984 ± 0.55.

NAVTFLHIVLRENNHGRMHK: the amyloid nucleation score was determined as 6.21 ± 0.073.

Substance VIFSGVTRFHSRTCLRFVMI displayed an amyloid nucleation score of -0.09 ± 0.79.

For PWACSTSRSMLPSSSLPALM, the amyloid nucleation score came out at 0.814 ± 0.66.

With ANLCSCSTTMA, the amyloid nucleation score was 0.236 ± 0.39.

TQRTAFRGR had an amyloid nucleation score of 0.203 ± 0.75.

For LISYRYFFCHRECVLVIGSN, the amyloid nucleation score worked out at 0.327 ± 0.6.

In the case of DRYIREISNTATCFALLL, the amyloid nucleation score amounted to 4.29 ± 0.083.

In the case of TMSHCVRRCGVMGGVVAFKG, the amyloid nucleation score is -0.031 ± 0.38.

Regarding GLKALILNSSSCCRARFGAA, the amyloid nucleation score worked out at 0.307 ± 0.23.

The substance RVIFSGYWRAIFSLS gave an amyloid nucleation score of -0.383 ± 0.66.

With KVCAVTM, the amyloid nucleation score came out at 0.095 ± 0.3.

For SRWPTHGSQIFVLTESVLTN, the amyloid nucleation score amounted to 0.062 ± 0.55.

As to TFSTGFGGIISLACVRRQYL, the amyloid nucleation score amounted to 0.049 ± 0.88.

As to FQYGLGMRVRWKDAMLIRTR, the amyloid nucleation score entry was “inactive”.

The substance LVFTMWLPKRDACPDLTTMM gave an amyloid nucleation score of 0.34 ± 0.47.

VFSFLPSYGHKCTAKQFFSA: the amyloid nucleation score was -0.3 ± 1.4.

In the case of VNRALAFNCWSALILGNAVV, the amyloid nucleation score was -0.608 ± 0.31.

Take EPYDSLGYPNEDLGTGVFWG: the amyloid nucleation score was -1.72 ± 2.7.

In turn, TLFCSGSNAKAGCSEHYYFC yielded an amyloid nucleation score of 3.04 ± 0.16.

FSRFWISSKHT gave an amyloid nucleation score of -1.33 ± 1.3.

Take FACMEGSLVM: the amyloid nucleation score result was “inactive”.

Regarding FCYFRVFVKSILDDWN, the amyloid nucleation score is 0.278 ± 0.31.

In the case of DLIWPRTRYRSTVD, the amyloid nucleation score result is “inactive”.

ACLGVTRGYSGPSTTKSFLR returned an amyloid nucleation score of -0.238 ± 0.46.

AVCVPVSKDGPVKGKFINKY came in with an amyloid nucleation score of 0.329 ± 0.41.

The substance LLGYRTYEMEHSCILRPRNK yielded an amyloid nucleation score of 0.887 ± 0.57.

The substance FLDMVVMGCEFRPSGGFSSV had an amyloid nucleation score of -0.156 ± 0.38.

Regarding GYHSKFRWVLLFVVTSASGE, the amyloid nucleation score entry was “inactive”.

For the substance RNVCIIVVSEW, the amyloid nucleation score was 6.589 ± 0.056.

As to EIARHSFF, the amyloid nucleation score result is “inactive”.

Turning to LPGDDTSCEDLSGGVPLWNG, the amyloid nucleation score entry is “inactive”.

Substance ECGVFQVKTAGIGS showed an amyloid nucleation score of -0.425 ± 0.8.

The substance LAMRAMIRNVLFTKSQLHDR had an amyloid nucleation score of -0.154 ± 0.38.

Regarding SWFYYAKC, the amyloid nucleation score was found to be 0.05 ± 0.76.

In turn, PTIKRGTVGFNWVGRACSGK returned an amyloid nucleation score of -0.529 ± 0.57.

The substance FDLFVKGECFVVRPLATSTY gave an amyloid nucleation score of -0.66 ± 0.38.

In turn, GFNKSSSGFVSSNGDIDYWD displayed an amyloid nucleation score of -1.68 ± 2.1.

For LRHRKSRNRVSCHCLGHGCW, the amyloid nucleation score turned out to be 1.54 ± 0.84.

SFRYVGCWYMARWFS showed an amyloid nucleation score of -0.497 ± 0.3.

KKTGVVGVYK came in with an amyloid nucleation score of -1.26 ± 1.1.

Regarding DCDRYNGLCHLCCIQWHL, the amyloid nucleation score was 1.56 ± 0.33.

Turning to RKVSANRFSYWRMGKGMYPV, the amyloid nucleation score stood at 0.042 ± 0.34.

In turn, FLVYGSSGFTAVLGPQCEEG gave an amyloid nucleation score of -0.777 ± 1.4.

Substance LSKKFWRFVWARLSEELIER returned an amyloid nucleation score of 0.811 ± 0.51.

In turn, GFKVVDTAWFL had an amyloid nucleation score of -0.116 ± 0.27.

KCTWTN registered an amyloid nucleation score of 0.255 ± 0.87.

Turning to SLQAIGNWYHD, the amyloid nucleation score stood at 0.038 ± 0.6.

Consider KLSRDFRGFYRT, for which the amyloid nucleation score result is “inactive”.

As to ASIYMLRFMDLT, the amyloid nucleation score is -0.244 ± 0.71.

In turn, KCQIGSMVLSYMVELPGDRD displayed an amyloid nucleation score of -0.171 ± 0.36.

For the substance EDWHVDSFGFSKTSMGTRRL, the amyloid nucleation score was determined as 2.49 ± 0.14.

The substance MRSIH showed an amyloid nucleation score of -0.11 ± 0.74.

In the case of RPKCWWVIGCIKRKSMSIGR, the amyloid nucleation score was 2.17 ± 0.081.

As for EMSRGHLHTSFRVYIQMLGG, the amyloid nucleation score stood at 4.54 ± 0.073.

With WGRNMKYVRTGVGLINDLVR, the amyloid nucleation score entry is “inactive”.

IGGLSGEYWFHLLSSSVLFF: the amyloid nucleation score result was “inactive”.

Substance WCRDIPWMVLNTVGRY yielded an amyloid nucleation score of -0.547 ± 0.63.

Substance TAFFCRFPSCGGYIAYRSYV returned an amyloid nucleation score of -1 ± 1.2.

The substance IPKVIGWFTVVTTGVVVNIS yielded an amyloid nucleation score of -1.59 ± 2.7.

Take YGVMSLRGVRLVQDVKTRSF: the amyloid nucleation score was -0.849 ± 0.62.

The substance IGESDNG registered an amyloid nucleation score of -0.63 ± 0.56.
